# Assay results published in IntAct's records for PubMed 34063696.
# B1: BolA-like protein 3 (Homo sapiens), Q53S33 (parent)
# chain: MAAWSPAAAAPLLRGIRGLPLHHRMFATQTEGELRVTQILKEKFPRATAIKVTDISGGCGAMYEIKIESEEFKEKRTVQQHQMVNQALKEEIKEMHGLRIFTSVPKR
# partner: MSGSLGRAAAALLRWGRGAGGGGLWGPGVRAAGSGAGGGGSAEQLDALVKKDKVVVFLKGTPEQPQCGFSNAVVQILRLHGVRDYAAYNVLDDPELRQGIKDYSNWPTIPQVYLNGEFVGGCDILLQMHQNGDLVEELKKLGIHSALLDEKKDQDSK
# Variants of: B1
# Conditions: with glrx5_human GLRX5, Q86SX6
row,Variant,effect of a mutation on the interaction
1,C59Y,with no effect
